Data taken from article PMC10681719, “An archaeal virus-encoded anti-CRISPR protein inhibits type III-B immunity by inhibiting Cas RNP complex turnover”.

Legend:
[1] = target: Cmr-α ribonucleoprotein complex (RNP) (S. islandicus | S. islandicus (endogenous in the expression strain))
AcrIIIB2 [2] = target: T1, AcrIIIB2 (Sulfolobus islandicus rod-shaped virus …, UniProt A0A1B3SN31 1-149); test: EMSA; 10 mM EDTA; no difference in affinity among RNAs; EMSA: 20 mM MES pH 6.0, 10 mM EDTA, 250 nM FAM substrate, 70 C for 5 min (10 min stated for RNP in Methods); 12% native PAGE in 0.5x TB; details: protein: recombinant, tags: C-terminal 6xHis (pET30a)
T1 sequence: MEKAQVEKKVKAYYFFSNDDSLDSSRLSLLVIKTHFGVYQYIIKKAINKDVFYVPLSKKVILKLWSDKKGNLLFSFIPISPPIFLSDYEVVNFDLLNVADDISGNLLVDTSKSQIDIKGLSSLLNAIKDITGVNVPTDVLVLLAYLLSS

AcrIIIB2 [3] = target: T1, AcrIIIB2; test: EMSA; 250 nM RNA, 0-15 uM protein, 10 mM EDTA, 70 C; also binds at lower temperature; EMSA: 20 mM MES pH 6.0, 10 mM EDTA, 250 nM FAM substrate, 70 C for 5 min (10 min stated for RNP in Methods); 12% native PAGE in 0.5x TB; details: protein: recombinant; tags: C-terminal 6xHis (pET30a); label: 5'-FAM

With His-tagged AcrIIIB2 (natural protein) the cis RNase activity of Cmr-α RNP (100 nM) on 250 nM labeled target RNA: uncleaved target RNA, AcrIIIB2 to Cmr-α RNP molar ratios 0 to 30 [1] was 80% and the trans ssDNase activity of Cmr-α RNP (100 nM) with 300 nM target RNA and 300 nM labeled ssDNA: uncleaved ssDNA, AcrIIIB2 to Cmr-α RNP molar ratios 0 to 30 [1] was 15%.

CCAAGCUAAUCUACUAUAGAAUUGAAAGCU (ssRNA) [RNA2]: binds (AcrIIIB2 [2]; label: 5'-FAM).

GUGACAGCAUCUCAUACUAGACAG (ssRNA) [RNA4]: binds (AcrIIIB2 [2]; label: 3'-FAM).

AGUCUCGUAACCAGUCCAAGAACAGAAACCAGUCAAAUGACCG (ssRNA) [RNA1 (target RNA, 43 nt)]: binds (AcrIIIB2 [3]).

UCAAAGCUUAGAUACCCUGGA (ssRNA) [RNA3]: binds (AcrIIIB2 [2]; label: 5'-FAM).
